Entries after “also recorded” stand apart in the source; their conditions may differ. Ends that are not written are not given here. * marks the point of attachment. Biotin = O=C1N[C@H]2[C@H](CS[C@H]2CCCCC(=O)*)N1

6 molecules from article PMC5993284, “Peptide inhibitors of the anaphase promoting-complex that cause sensitivity to microtubule poison” (PLoS ONE, 2018) can be followed below.

For one test, the target named is T1, APC/C^Cdc20 (Saccharomyces cerevisiae, UniProt P16522+P53886).
T1 construct: constructed within full-length Cdc20 by site-directed mutagenesis for analysis in vitro in the APC/C^Cdc20 assay; The APC/C was purified for enzyme assays from 1 mL of TAP-tagged Cdc16 yeast extract (SCSY51); made in house; host or cells: Cdc20: in vitro transcription/translation in rabbit reticulocyte lysate, used unpurified; APC/C: S. cerevisiae strain SCSY51 (Cdc16-TAP) extract, captured on IgG magnetic beads
The experiment in a line: biochemical. The format is biochemical. As to conditions: 220 μM peptide; 35S-Pds1 substrate; time course 0-60 minutes; vs buffer only; n = 3. The procedure:
Full-length, radio-labeled protein purifications were preformed as previously described. ^35S-Pds1 was prepared in a 500 μL IVT/T (In Vitro Transcription/Translation) reaction (Promega, USA), which contained 400 μL rabbit reticulocyte lysate, 20 μL of L-^35S-methionine (PerkinElmer, USA), 10 μg of plasmid DNA, and the remaining volume as nuclease-free ddH2O as recommended by the manufacturer. The reaction mixture was incubated for 2 hours at room temperature and gently mixed every 30 minutes. The reaction was added to pre-equilibrated IgG Sepharose beads (GE Healthcare, USA) in Bio-spin disposable chromatography columns (Bio-Rad, USA) for binding for 2 hours at room temperature. To ensure efficient binding, the beads were re-suspended several times every 30 minutes. After binding, the beads were washed with 5 mL wash buffer, containing 200 mM 4-(2-hydroxyethyl)-1-piperazineethanesulfonic acid (HEPES) at pH 8.0, 150 mM NaCl, 10% (v/v) glycerol, and 1 mM dithiothreitol (DTT). The ^35S-Pds1 was cleaved from the beads using TEV (Tobacco Etch Virus) protease in 1x TEV buffer (Invitrogen, USA) for 2 hours at room temperature, and the mixture was re-suspended several times every 30 minutes to promote efficient cleavage. The elution was collected and concentrated by employing an Amicon Ultra filter column (Millipore, Ireland). The concentrated ^35S-Pds1 was collected in a new tube, and stored at -20 °C.
(§1) The production of Cdc20 or Cdh1 was prepared by IVT/T reactions, where 16 μL of rabbit reticulocyte lysate, 20 μM L-methionine, 0.4 μg of plasmid DNA, and a volume of nuclease-free ddH2O for a total volume of 20 μL. This freshly synthesized Cdc20 or Cdh1 protein was used directly in all APC/C assays after a 1-hour synthesis reaction at room temperature. The APC/C was purified for enzyme assays from 1 mL of TAP-tagged Cdc16 yeast extract (SCSY51) where extract was mixed with 50 μL 50:50 slurry magnetic beads (Invitrogen, Norway) for 2 hours at 4 °C. After incubation, the beads were washed with 3 mL APC/C wash buffer (200 mM of HEPES, 150 mM of NaCl and 10% (v/v) of glycerol). APC/C bound to IgG magnetic beads was used directly in the enzyme assays.
(§2) APC/C assays were performed by adding the reaction contents in following order: 4.3 μL of QAH buffer, 20 μL of rabbit reticulocyte lysate containing Cdc20 or Cdh1 with or without an additional volume of recombinant checkpoint protein(s) or inhibitor peptides, 2.4 μL ubiquitin aldehyde (Boston Biochem, USA), APC/C, 16 μL pre-charged E1/E2/ATP/ubiquitin mix, and 13.3 μL of ^35S-Pds1 with QAH buffer (20 mM HEPES at pH 8.0, 100 mM NaCl, and 1 mM MgCl2). The E1/E2/ATP/ubiquitin mix were pre-charged by mixing 1 μL of E1 (Boston Biochem, USA), 1 μL of E2 (Boston Biochem, USA), 14.4 μL of ATP, 14.4 μL of […] (Boston Biochem, USA), and 17.2 μL of QAH buffer and incubated for 15 minutes at room temperature. Approximately 15 μL of samples were taken out at each time point, and the reaction was stopped by the addition of 2x protein sample buffer (125 mM Tris-HCl pH 6.8, 4% SDS, 20% glycerol, and 0.002% bromophenol blue, with 10% (final v/v) 2-mercaptoethanol added in fresh directly before use).
For inhibitor titration and time-course experiments, recombinant Bub3, Mad2, Mad3, and the Mad3-Bub3 complex were expressed and purified as previously described. […] For inhibition of APC/C the co-factor Cdc20 or Cdh1 was made fresh by IVT/T, and pure recombinant checkpoint proteins or inhibitor peptides were added to the IVT/T mixture and incubated for an additional hour at room temperature. In titrations, a dilution series of the checkpoint protein(s) were made before incubation with the Cdc20 co-factor. SDS-PAGE was performed using stand protocols (BioRad, USA).

Test [1] concerns APC/C. The experiment in a line: Biotinylated peptide pull-down of purified APC/C, Western blot. Format: binding, Saccharomyces cerevisiae. The note with it: 20 μM biotinylated peptide, purified yeast APC/C, 1 h at 4 °C, streptavidin/Avidin beads, n = 3. The procedure: For APC/C purification, the APC/C which contain Cdc16-TAP-tag was isolated from 2 mL arrested yeast lysate by 120 μL IgG sepharose 6 Fast Flow beads (GE Healthcare Life Sciences) and incubate for 2 h at 4 °C on a rotating wheel. Beads were collected washed with 5 mL of APC/C wash buffer (200 mM Hepes pH8.0, 150 mM NaCl, 10% glycerol). Beads were resuspended in 150 μL of APC/C wash buffer contain 17.6 units of AcTEV protease (Invitrogen, Carlsbad, CA) at 4°C for 3 h with pipetting every 20 minutes. The purified APC/C was collected in the flow-through.
For APC/C binding assays, 20 μM biotinylated peptides or 20 μM peptides only as a negative control were incubated with purified APC/C and 100 μL APC/C wash buffer which contains phosphatase inhibitors (200 mM Hepes pH 8.0, 150 mM NaCl, 10% glycerol, 10 mM NaF, 1 mM NaVO4, 5 mM Na-pyrophosphate, 10 mM 2-glycerol phosphate) for 1 h at 4 °C. The mixtures were applied to 120 μL streptavidin beads (Dynabeads MyOne Streptavidin T1, Invitrogen) for 30 min at 4 °C with gentle pipetting every 10 min. Beads were washed with 1 mL of PBST buffer (Phosphate buffer saline and 0.1% Tween 20) three times SDS-PAGE protein sample was added directly. For APC/C binding competition experiments, the biotinylated peptide and 10-fold excess non-biotinylated peptides were added to purified APC/C at same time.
Free D-biotin in 10% DMSO was used for the control binding assays. For pre-coating APC/C with biotin, a modified APC/C purification was performed. 2 mL yeast lysate was incubated with 120 μL IgG Sepharose beads and additional 20.4 μM free biotin or non-biotin solvent as a positive control was added and samples were incubated for 2 h at 4 °C on a rotating wheel. Purified pre-coated APC/C was then removed from the IgG Sepharose following the standard purification procedure. 20 μM biotinylated peptides or 20 μM peptides as a negative control were incubated with pre-coated APC/C and 100 μL APC/C wash buffer which contain phosphatase inhibitors for 1 h at 4 °C. In addition, 20 μM biotinylated peptide was added and incubated with pre-coated APC/C in a non-biotin containing solvent as positive control. Pre-coated APC/C binding procedures were same as above. For pre-coating streptavidin beads with biotin, streptavidin beads were washed in the presence of 10.2 nmol/mL D-biotin in PBST buffer or non-biotin solvent as a positive control before use. Pre-coated streptavidin beads were incubated with purified APC/C-peptide complexes with an extra […] biotin for 30 minutes with gentle pipetting every 10 min at 4 °C.
Proteins were separated in SDS-PAGE gels and then were transferred to PVDF membrane. Blocking was performed by incubating samples in 20 mL PBST with 5% milk at 4 °C. Rabbit anti-tap (Thermo, CAB1001) was used as primary antibodies at a 1:1000 dilution and incubated for 2 hours at RT. Anti-rabbit HRP (Jackson, USA) was then used as secondary antibody at 1:5000 dilution and incubate for 1 hr at RT. Chemiluminescence signals were detected using an ImageQuant LAS 4000 (GE Healthcare Bio-Sciences, USA). For cell cycle timing Western blots anti-MYC and anti-Actin antibodies were employed (ABCAM, UK).
(In general: Immunoblotting shows a protein as a band on a membrane.)

For test [2], the system named is APC/C. The experiment in a line: APC/C activity promoted by mutant Cdc20 alleles (Pds1 remaining). The format is biochemical, Saccharomyces cerevisiae. How it is done:
as §1, §2
For APC/C activity assays dried-gels were exposed on a phosphor screen cassette to detect radio-labeled protein. The phosphor screen was scanned by a Typhoon phosphor-imager (GE Healthcare Bio-Sciences, USA), and radio-labeled protein bands in gels were quantified by employing the ImageQuant software (GE Healthcare Bio-Sciences, USA) according to the manufacturer’s protocols. Data were expressed as mean ± standard deviation, and was analyzed using Student’s t-test. Graphs were created using Kaliedograph 4.0 (Synergy Software, USA) and estimates of best-fit curves of a 4-parameter Hill equation were generated to obtain estimates for the median inhibitory concentrations (IC50) and Hill coefficients (Hc) using IgorPro 6.01 (Wavemetrics, USA).
By sequence alignment and amino acid homology alone, the budding yeast KILR-motif may be defined as 201-RILQ-204 (Fig 1A). However, the next residue, Tyrosine Y205 had previously been isolated in a genetic screen for spindle checkpoint by-pass alleles of Cdc20 [21], indicating this Y205 residue may be a target of the spindle checkpoint inhibition, and thus might also be a functional KILR-motif residue that contributes to APC/C activation. To clarify this possibility, we took the initial step to characterize several of the previously isolated spindle checkpoint by-pass mutant alleles of Cdc20 [21], and also Cdc20 mutants in the two highly conserved residues within the Mad2-binding motif, the aspartic acid at D197 of unknown function and the highly conserved Leucine L203 within the KILR-motif based on sequence alignment and homology. […]

“DK27: defined Mad2-binding motif peptide DK27 (Cdc20 197–223) (Biotin-DMNKRILQYMPEPPKCSSLRQKSYIMK)”: the “inhibition of APC/C^Cdc20 activity (in words)” value (“inhibition” for short) in the test with APC/C^Cdc20 was “displayed a diminished ability to inhibit APC/C^Cdc20 although a significant difference with the buffer only control was still observed”. In addition, in the test on APC/C [1], the “binding to APC/C (in words)” value is reported as “retained the ability to bind with the APC/C; also recorded: displayed the ability to bind APC/C similar to the control peptide DQ36”.
In the case of “SQ19: C-terminal 19 amino acids, SQ19 (Cdc20 213–232) peptide (SSLRQKSYIMKKRTHYSYQQ; UniProt P26309 213-232, looked up, fragment)”, in the test with APC/C^Cdc20, the “inhibition” value is given as “displayed a low level of inhibitory activity”. The “binding to APC/C (in words)” value in the test on APC/C [1] is recorded as “displayed the ability to bind APC/C similar to the control peptide DQ36”.
Take “biotinylated-DQ36: DQ36 containing an N-terminal biotin (Biotin-DMNKRILQYMPEPPKCSSLRQKSYIMKKRTHYSYQQ)”: the “binding to APC/C (in words)” value in the test with APC/C [1] is on record as “able to pull-down purified APC/C”.
As for “PS46: N-terminal 46 amino acid peptide called PS46 (Cdc20 167–213) (LPPPNASPISHLRAQTKIVFKQNVAEACGLDMNKRILQYMPEPPKCS; UniProt P26309 167-213, looked up, fragment)”, the “inhibition” value with APC/C^Cdc20 is “observed to inhibit APC/C^Cdc20”. Besides, the “binding to APC/C (in words)” value with APC/C [1] is recorded as “able to bind to the APC/C directly, although consistently weaker binding was observed relative to DQ36; also recorded: consistently observed to have weaker APC/C binding activity relative to wild type DQ36”.

B1: Cdc20-CB (I147A, P148A): control mutant with mutations in two residues within the C-box (protein, UniProt P26309 1-610, looked up, variant I147A P148A)
APC/C activator protein CDC20: MPESSRDKGNAAISGNRSVLSIASPTKLNILSSDWSRNQGKVSKNSLKRSSSLNIRNSKRPSLQASANSIYSRPKITIGAPPLIRRDSSFFKDEFDAKKDKATFSAYSSRSYPTIGSESVVSQTSLSQPTTSREVDEQFTVAADRYAAILQGASQNKVDPETLHEALPPPNASPISHLRAQTKIVFKQNVAEACGLDMNKRILQYMPEPPKCSSLRQKSYIMKKRTHYSYQQEQKIPDLIKLRKINTNPERILDAPGFQDDFYLNLLSWSKKNVLAIALDTALYLWNATTGDVSLLTDFENTTICSVTWSDDDCHISIGKEDGNTEIWDVETMSLIRTMRSGLGVRIGSLSWLDTLIATGSRSGEIQINDVRIKQHIVSTWAEHTGEVCGLSYKSDGLQLASGGNDNTVMIWDTRTSLPQFSKKTHTAAVKALSWCPYSPNILASGGGQTDKHIHFWNSITGARVGSINTGSQVSSLHWGQSHTSTNGGMMNKEIVATGGNPENAISVYNYETKFKVAEVVHAHEARICCSQLSPDGTTLATVGGDENLKFYKIFDPRCTGRSREDGLMDGMLGLIGKEGCRTNDKENRSKNSSEIHTRRPSSTSQYLIR
With B1, the “ability of mutant Cdc20 to promote APC/C activity (in words)” value with APC/C [2] (vs wild type Cdc20, n = 3) is listed as “displayed decreased APC/C activity; also recorded: consistently displayed a decrease in APC activity”; with APC/C [2] (vs wild type Cdc20, n = 3, listed as Cdc20-CB) it was “had no APC/C activity”.

B2: biotinylated-PQ65: PQ65 containing an N-terminal biotin (peptide, UniProt P26309 169-232, looked up, fragment)
chain: Biotin-PPNASPISHLRAQTKIVFKQNVAEACGLDMNKRILQYMPEPPKCSSLRQKSYIMKKRTHYSYQQ
Regarding B2, in the test on APC/C [1], the “binding to APC/C (in words)” value was “able to pull-down purified APC/C”.
